Experimental data as given in article doi:10.1101/2022.04.10.487811.

Target: HA H7 HK17 (A/Hong Kong/125/2017(H7N9)) hemagglutinin (influenza A virus A/Hong Kong/125/2017(H7N9))
Test: BLI

MEDI8852 Fab (wildtype)
Kd: 0.21 nM
